This data set deals with the molecule itself. The data set can be described thus: SEC-MALS; Superdex 200 10/300 GL; 20 mM Tris-HCl pH 7.5, 150 mM sodium chloride, 0.5 mM TCEP; 100 μL of monomer and dimer fractions of NDRG3 ΔNC at 2.0 mg/mL injected separately, 0.4 mL/min.

The values that follow come from PMC7022630 (Biomolecules, 2020).

B1: truncated human NDRG3 (residues 29–320, NDRG3 ΔNC) (domain or fragment)
chain: not shown
notes: N-Myc downstream-regulated gene 3 protein (NDRG3), human, 375 amino acids, residues 29-320; Elutes as monomer and dimer fractions; mainly monomer; No removal of the His tag is described; also called NDRG3 ΔNC WT; NDRG3 ΔNC wild type; source: E. coli BLR(DE3), purified (Ni-chelating, Q HP, Superdex 200); for the analytical SEC loaded after the Ni-chelating column
For the protein B1, the “stoichiometry N” value is 2.

By stoichiometry N is commonly meant a count of units in the complex or per binding partner.
